For test [1], the target named is T1, PACAP38 (UniProt P18509 132-169, biotinylated in the ELISAs).
T1 peptide (looked up): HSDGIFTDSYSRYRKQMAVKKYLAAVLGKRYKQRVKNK
The experiment in a line: cell-based or functional assay.

Test [2] concerns the target T1, PACAP38. The experiment in a line: competition ELISA, biotinylated PACAP38 to coated PAC1-Fc. As for the experimental part:
(§1) The plates were incubated for 1 h and washed, and a horseradish peroxidase-labeled streptavidin secondary antibody was then added. After incubation, color development was performed.
For orientation: ELISA stands for enzyme-linked immunosorbent assay.

The target in test [3] is T1, PACAP38. The experiment in a line: competition ELISA, biotinylated PACAP38 to coated VPAC1-Fc. As for the experimental part:
as §1

Test [4] has as its target T1, PACAP38. The experiment in a line: competition ELISA, biotinylated PACAP38 to coated VPAC2-Fc. As for the experimental part: as §1
Test [5] deals with hIL5 (human, UniProt P05113 20-134). The experiment in a line: method of Test Example 4 of WO2021139758.
In test [6] the target is hTSLP (human, UniProt Q969D9 29-159). The experiment in a line: method of Test Example 4 of WO2021139758.
The target of test [7] is T2, human CGRP (human, UniProt P06881 83-119).
T2 peptide (looked up): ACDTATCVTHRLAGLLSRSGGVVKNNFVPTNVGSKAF
The experiment in a line: ELISA, coated CGRP.

For test [8], the target named is T3, rat CGRP (rat, UniProt P01256 83-119).
T3 peptide (looked up): T2 peptide (looked up) with A1S, D3N, N25D, K35E
The experiment in a line: ELISA, coated CGRP.

Test [9] addresses CGRP. The experiment in a line: cell-based or functional assay.
Test [10] deals with CGRP. Kind of test: cell-based or functional assay. The source holds these as a separate data set.
Test [11] deals with T3, rat CGRP. The experiment in a line: SPR, Biacore 8K, antibody captured on Protein A chip, 1:1 model. On the procedure:
A Protein A biosensor chip was used to affinity-capture IgG, and a molecule sample was then allowed to flow through the surface of the chip. Reaction signals were detected in real time using a Biacore 8K system to obtain association and dissociation curves. After the dissociation in each experimental cycle was complete, the biosensor chip was washed and regenerated 3 times with 50 mM NaOH. Data fitting was performed using a 1:1 model.
(Surface plasmon resonance follows binding to a sensor surface in real time, without labels.)

The target of test [12] is T2, human CGRP. The experiment in a line: SPR, Biacore 8K, 25 C, biotinylated antibody on SA chip, 1:1 model. On the procedure: First, the test antibodies ([…] for the mAbs and 4 μg/mL for the diabodies), biotinylated (indicated by Biotin-), were each coupled onto an SA biosensor chip. Then samples of the antigen human CGRP were sequentially injected in ascending order for 180 s, followed by dissociation. After the test was finished, fitting was performed using a 1:1 binding model.

Numbering of substitutions follows the chain as printed. Where two headings read alike, the source gives them in different places.

Consider eleven molecules from US20260176358A1 (JIANGSU HENGRUI PHARMACEUTICALS, published 2026).

B1: P96H1L1 (antibody, human IgG1, kappa, V domains shown)
VH: EVQLVQSGAEVKKPGATVKISCKASGFNIKDYYMHWVQQAPGKGLEWMGWIDPENDNTLYDPKFQDRVTITTDTSTNTAYMELSSLRSEDTAVYYCVFGVMTTVEGDFDYWGQGTTVTVSS
VL: ETVVTQEPSLTVSPGGTVTLTCRSSSGTVTTSNYANWVQQKPGQAFRGLIGGTNNRAPGAPARFSGSLLGGKAALTLSGVQPEDEAEYYCALWYSNHWVFGGGTKLTVLR
As a reminder, the IC50 is the midpoint of a concentration-inhibition curve. A low value points to inhibition by little substance. As to B1, the “IC50, inhibition of cAMP production in SH-SY5Y cells” value in test [1] came out at 1.79 nM. Further, the values for the 50% inhibitory concentration (IC50) in [2], in test [3] and in test [4] were 0.76 nM, 0.53 nM and 0.61 nM, respectively.

B2: P96#-CHI (antibody, human IgG1, kappa, V domains shown)
VH: EVQLQQSGADLVRPGALVKLSCKASGFNIKDYYMHWVKQRPEQGLEWIGWIDPENGNTLYDPKFQDKASITTDTSSNTAYLQLSSLTSEDTAVYYCVFGVMTTVEGDFDYWGQGTALTVSS
VL: QAVVTQESALTTSPGETVTLTCRSSSGTVTTSNYANWVQEKPDHLFTGLIGGTNNRAPGAPARFSGSLIGDKAALTITGAQTEDEAIYFCALWYSNHWVFGGGTKLTVLR
notes: chimeric: murine variable regions fused to human constant regions; also called P96#-CH1
Consider B2, for which the “IC50, inhibition of cAMP production in SH-SY5Y cells” value in [1] amounted to 8.26 nM. The concentration for half-maximal inhibition (IC50) in [2] was 0.83 nM; in test [3], 0.53 nM; in test [4], 0.68 nM.

B3: HJ-5 (bispecific antibody)
chain 1: not shown
chain 2: DIQMTQSPSSVSASVGDRVTITCRASQDIANYLSWYQQKPGKSPKLLIYGTSNLEVGVPSRFSGSRSGTDFTLTISSLQPEDFATYYCLQDKEFPRTFGGGTKVEIKGGGGSSGAPRFLTRPKASVVSVGKDATLSSQIVGNPFPQVSWEKDKQPVTAGVRFRLAQDGDLYRLKILDLQLSDSGQYVSRARNAHGEAFACLGLQVDAEA
chain 3: EVQLVQSGAEVKKPGSSVKVSCKASGYTFSNYLIEWVRQAPGQGLEWIGVIDPGVGDTNYNENFKGRATLTADKSTSTAYIELSSLRSEDTAVYYCAREDNTGTAFDYWGQGTTVTVSSASTKGPSVFPLAPSSKSTSGGTAALGCLVKDYFPEPVTVSWNSGALTSGVHTFPAVLQSSGLYSLSSVVTVPSSSLGTQTYICNVNHKPSNTKVDKKVEPKSCDKTHTCPPCPAPEAAGGPSVFLFPPKPKDTLMISRTPEVTCVVVDVSHEDPEVKFNWYVDGVEVHNAKTKPREEQYNSTYRVVSVLTVLHQDWLNGKEYKCKVSNKALPAPIEKTISKAKGQPREPQVCTLPPSREEMTKNQVSLSCAVKGFYPSDIAVEWESNGQPENNYKTTPPVLDSDGSFFLVSKLTVDKSRWQQGNVFSCSVMHEALHNHYTQKSLSLSPGK
chain 4: SIVMTQTPLSLSVTPGQPASISCKASQSVSSDVTWYLQKPGQSPQLLIYYVSEHYTGVPDRFSGSGYGTDFTLKISRVEAEDVGVYYCQQHHRFPLTFGQGTKLEIKRTVAAPSVFIFPPSDEQLKSGTASVVCLLNNFYPREAKVQWKVDNALQSGNSQESVTEQDSKDSTYSLSSTLTLSKADYEKHKVYACEVTHQGLSSPVTKSFNRGEC
By EC50 is commonly meant the midpoint of the concentration-response curve. Read a high EC50 as lower potency in that assay. Turning to B3, the concentration giving a half-maximal response (EC50) was found to be 16 nM in [5] and 2.64 nM in [6].

B4: HJ-9 (bispecific antibody)
chain 1: not shown
chain 2: B3 chain 2 with G108R, G109T, G110V, G111A, R121C
chain 3: B3 chain 3
chain 4: B3 chain 4
B4: the 50% effective concentration (EC50) in test [5] was 10.9 nM; in test [6] it was 3.18 nM.

B5: HJ-8 (bispecific antibody)
chain 1: not shown
chain 2: B3 chain 2 with G108R, G109T, G110V, G111A
chain 3: B3 chain 3
chain 4: B3 chain 4
For B5, the results for the 50% effective concentration (EC50) in [5] and in test [6] were 18.7 nM and 3.33 nM, respectively.

B6: HJ-11 (bispecific antibody)
chain 1: not shown
chain 2: B3 chain 2 with G108R, G109T, G110V, G111A, A115C, S137C, S188C
chain 3: B3 chain 3
chain 4: B3 chain 4
Regarding B6, the half-maximal effective concentration (EC50) in [5] stood at 9.46 nM; in test [6], 3 nM.

B7: HJ-7 (bispecific antibody)
chain 1: not shown
chain 2: B3 chain 2 with S137C, S188C
chain 3: B3 chain 3
chain 4: B3 chain 4
Regarding B7, the half-maximal effective concentration (EC50) in [5] came out at 17.7 nM; in test [6], 2.18 nM.

B8: HJ-6 (bispecific antibody)
chain 1: not shown
chain 2: B3 chain 2 with R121C
chain 3: B3 chain 3
chain 4: B3 chain 4
For B8, the half-maximal effective concentration (EC50) amounted to 37 nM in test [5] and 2.88 nM in test [6].

B9: HJ-10 (bispecific antibody)
chain 1: not shown
chain 2: B3 chain 2 with G108R, G109T, G110V, G111A, S137C, S188C
chain 3: B3 chain 3
chain 4: B3 chain 4
Take B9: the values for the EC50 in test [5] and in test [6] were 20.8 nM and 3.17 nM, respectively.

B10: C21H2L1 (antibody, human IgG1, kappa, V domains shown)
VH: EVQLVQSGAEVKKPGASVKVSCKASGYTFTDYYMNWVRQAPGQRLEWIGDINPNQGGTNYNQKFKGRATLTVDKSASTAYMELSSLRSEDTAVYYCASIIIVPNYFDYWGQGTTVTVSS
VL: DIQMTQSPSSLSASVGDRVTITCKASQNVDTNVAWFQQKPGKAPKSLIYSASYRYSGVPSRFSGSGSGTDFTLTISSLQPEDFATYYCQQYNNYPYTFGGGTKVEIKR
notes: also called Biotin-C21H2L1
For orientation: Kd means the equilibrium constant for the complex coming apart. Broadly, the koff is the first-order rate constant of dissociation. The kon is the rate constant with which the complex forms. Read a high kon as faster complex formation. On to B10, for which the results for the EC50 in [7] and in [8] were 2.3 nM and 4.26 nM, respectively. For the same molecule, the “IC50, inhibition of cAMP production in SK-N-MC cells” value was determined as 1.25 nM in test [9] and 1.98 nM in [10]. Moreover, the Kd in [11] amounted to 0.103 nM; in test [12], 0.00381 nM. Also, the koff in test [11] is 0.000232 s⁻¹; in [12], 1.92e-05 s⁻¹. The kon in [11] is 2.25e+06 M⁻¹ s⁻¹; in [12], 5.04e+06 M⁻¹ s⁻¹.

B11: C28H6L1 (antibody, human IgG1, kappa, V domains shown)
VH: B10 VH with I48M, Q55T, G57V, N59T, A68V, L70I, N104D
VL: B10 VL with L11V, D30G, T31S, F36Y, A43S, S46A, N93S
notes: also called Biotin-C28H6L1
On to B11, for which the 50% effective concentration (EC50) in test [7] was 1.26 nM; in [8], 5.29 nM. Also, the “IC50, inhibition of cAMP production in SK-N-MC cells” value in test [9] stood at 2.49 nM; in [10] it was 1.61 nM. The Kd was determined as 0.0674 nM in [11] and 0.00479 nM in test [12]. For the same molecule, the koff in test [11] came to 0.000139 s⁻¹; in test [12], 2.41e-05 s⁻¹. For the same molecule, the figures for the kon in test [11] and in test [12] were 2.06e+06 M⁻¹ s⁻¹ and 5.03e+06 M⁻¹ s⁻¹, respectively.
